Paper PMC5467231 (2017)

What was measured:
[1] = target: recombinant human FGFR2/Fc chimera (Sino Biological 10824-H03H) (human, UniProt P21802 22-377); experiment: SPR
[2] = target: T1, recombinant human FGFR1/Fc chimera (Sino Biological 10616-H03H) (human, UniProt P11362 22-376); experiment: SPR
T1 chain: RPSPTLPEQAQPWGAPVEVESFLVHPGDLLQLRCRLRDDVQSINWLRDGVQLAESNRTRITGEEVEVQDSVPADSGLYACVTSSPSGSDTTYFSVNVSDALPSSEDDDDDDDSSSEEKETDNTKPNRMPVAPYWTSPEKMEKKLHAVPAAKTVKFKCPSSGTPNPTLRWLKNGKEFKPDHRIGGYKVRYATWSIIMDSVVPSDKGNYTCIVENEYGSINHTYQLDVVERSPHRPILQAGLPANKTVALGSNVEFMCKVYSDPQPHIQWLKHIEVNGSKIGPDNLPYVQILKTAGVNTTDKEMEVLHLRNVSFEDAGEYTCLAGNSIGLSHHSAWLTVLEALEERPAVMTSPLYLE

recombinant human FGFR2/Fc chimera (Sino Biological 10824-H03H), sequence (P21802 22-377): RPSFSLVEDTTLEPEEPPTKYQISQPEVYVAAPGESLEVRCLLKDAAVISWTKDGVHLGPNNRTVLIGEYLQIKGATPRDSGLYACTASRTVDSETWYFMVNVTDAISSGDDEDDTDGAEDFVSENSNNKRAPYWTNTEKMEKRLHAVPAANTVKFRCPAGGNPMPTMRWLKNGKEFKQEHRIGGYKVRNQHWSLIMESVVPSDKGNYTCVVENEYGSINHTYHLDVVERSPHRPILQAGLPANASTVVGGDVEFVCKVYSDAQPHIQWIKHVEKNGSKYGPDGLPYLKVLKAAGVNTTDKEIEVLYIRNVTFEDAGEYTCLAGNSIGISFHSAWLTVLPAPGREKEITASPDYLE

B1: recombinant FGF4 (Peprotech AF-100-31) (ligand)
chain: APTAPNGTLEAELERRWESLVALSLARLPVAAQPKEAAVQSGAGDYLLGIKRLRRLYCNVGIGFHLQALPDGRIGGAHADTRDSLLELSPVERGVVSIFGVASRFFVAMSSKGKLYGSPFFTDECTFKEILLPNNYNAYESYKYPGMFIALSKNGKTKKGNRVSPTMKVTHFLPRL
Kd [1]: 6.94 nM | Kd [2]: 3.61 nM

B2: recombinant FGF8a (R&D Systems 4745-F8-050) (ligand)
chain: QHVREQSLVTDQLSRRLIRTYQLYSRTSGKHVQVLANKRINAMAEDGDPFAKLIVETDTFGSRVRVRGAETGLYICMNKKGKLIAKSNGKGKDCVFTEIVLENNYTALQNAKYEGWYMAFTRKGRPRKGSKTRQHQREVHFMKRLPRGHHTTEQSLRFEFLNYPPFTRSLRGSQRTWAPEPR
Kd [1]: 31.5 nM | Kd [2]: 39.2 nM
